According to patent publication US10919943B2, “Mutant proteins enabling agrochemical control of plant gene expression” (The Regents of the University of California, priority 2016, dated 2021):
Positions count from the first letter of the chain named. Numbers in names are those of the source.

Target: T1, PYR1 (Arabidopsis thaliana, UniProt O49686)
T1 construct: expressed in transfected cells; host or cells: S. cerevisiae strain Y190
T1 sequence (O49686 1-191): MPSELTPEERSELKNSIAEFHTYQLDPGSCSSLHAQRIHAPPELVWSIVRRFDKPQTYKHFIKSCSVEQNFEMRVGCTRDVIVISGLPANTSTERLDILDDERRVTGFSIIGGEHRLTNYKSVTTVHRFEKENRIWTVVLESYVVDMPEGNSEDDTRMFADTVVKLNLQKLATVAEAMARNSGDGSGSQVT
Experiment: Yeast two hybrid of pACT-HAB1 site saturation mutants with pBD-PYR1 on 10 μM ABA, β-galactosidase staining
Type: cell-based
Parameters: key: x: Mutations in HAB1 that disrupt HAB1 interaction with PYR1
Settings: S. cerevisiae Y190, 10 μM ABA; dead = lack of detectable staining in comparison to wild type control
How it was run: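 HAB1 (lacking three N-terminal residues) site-saturation mutants in pACT were co-transformed with pBD-PYR1 into S. cerevisiae Y190 and spotted on SD (-Leu,-Trp) with 10 μM ABA. After 2 days at 30 °C, chloroform-lysed colonies were stained for β-galactosidase; "dead" means no detectable staining versus wild-type pair.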

B1: G246I: HAB1 mutant (protein, UniProt Q9CAJ0 23-511, looked up, variant G246I)
Protein phosphatase 2C 16: SPVEITQLKNVTDAADLLSDSENQSFCNGGTECTMEDVSELEEVGEQDLLKTLSDTRSGSSNVFDEDDVLSVVEDNSAVISEGLLVVDAGSELSLSNTAMEIDNGRVLATAIIVGESSIEQVPTAEVLIAGVNQDTNTSEVVIRLPDENSNHLVKGRSVYELDCIPLWGTVSIQGNRSEMEDAFAVSPHFLKLPIKMLMGDHEGMSPSLTHLTGHFFGVYDGHIGHKVADYCRDRLHFALAEEIERIKDELCKRNTGEGRQVQWDKVFTSCFLTVDGEIEGKIGRAVVGSSDKVLEAVASETVGSTAVVALVCSSHIVVSNCGDSRAVLFRGKEAMPLSVDHKPDREDEYARIENAGGKVIQWQGARVFGVLAMSRSIGDRYLKPYVIPEPEVTFMPRSREDECLILASDGLWDVMNNQEVCEIARRRILMWHKKNGAPPLAERGKGIDPACQAAADYLSMLALQKGSKDNISIIVIDLKAQRKFKTRT
- Mutations in HAB1 that disrupt HAB1 interaction with PYR1: x

B2: G247R: HAB1 mutant (protein, UniProt Q9CAJ0 23-511, looked up, variant G247R)
Protein phosphatase 2C 16: B1 Protein phosphatase 2C 16 with I224G, G225R
- Mutations in HAB1 that disrupt HAB1 interaction with PYR1: x

B3: G247I: HAB1 mutant (protein, UniProt Q9CAJ0 23-511, looked up, variant G247I)
Protein phosphatase 2C 16: B1 Protein phosphatase 2C 16 with I224G, G225I
- Mutations in HAB1 that disrupt HAB1 interaction with PYR1: x

B4: G247P: HAB1 mutant (protein, UniProt Q9CAJ0 23-511, looked up, variant G247P)
Protein phosphatase 2C 16: B1 Protein phosphatase 2C 16 with I224G, G225P
- Mutations in HAB1 that disrupt HAB1 interaction with PYR1: x

B5: G247T: HAB1 mutant (protein, UniProt Q9CAJ0 23-511, looked up, variant G247T)
Protein phosphatase 2C 16: B1 Protein phosphatase 2C 16 with I224G, G225T
- Mutations in HAB1 that disrupt HAB1 interaction with PYR1: x

B6: G247W: HAB1 mutant (protein, UniProt Q9CAJ0 23-511, looked up, variant G247W)
Protein phosphatase 2C 16: B1 Protein phosphatase 2C 16 with I224G, G225W
- Mutations in HAB1 that disrupt HAB1 interaction with PYR1: x

B7: G247Y: HAB1 mutant (protein, UniProt Q9CAJ0 23-511, looked up, variant G247Y)
Protein phosphatase 2C 16: B1 Protein phosphatase 2C 16 with I224G, G225Y
- Mutations in HAB1 that disrupt HAB1 interaction with PYR1: x

B8: G247V: HAB1 mutant (protein, UniProt Q9CAJ0 23-511, looked up, variant G247V)
Protein phosphatase 2C 16: B1 Protein phosphatase 2C 16 with I224G, G225V
- Mutations in HAB1 that disrupt HAB1 interaction with PYR1: x

B9: G246K: HAB1 mutant (protein, UniProt Q9CAJ0 23-511, looked up, variant G246K)
Protein phosphatase 2C 16: B1 Protein phosphatase 2C 16 with I224K
- Mutations in HAB1 that disrupt HAB1 interaction with PYR1: x

B10: G247Q: HAB1 mutant (protein, UniProt Q9CAJ0 23-511, looked up, variant G247Q)
Protein phosphatase 2C 16: B1 Protein phosphatase 2C 16 with I224G, G225Q
- Mutations in HAB1 that disrupt HAB1 interaction with PYR1: x

B11: G247K: HAB1 mutant (protein, UniProt Q9CAJ0 23-511, looked up, variant G247K)
Protein phosphatase 2C 16: B1 Protein phosphatase 2C 16 with I224G, G225K
- Mutations in HAB1 that disrupt HAB1 interaction with PYR1: x

B12: G247F: HAB1 mutant (protein, UniProt Q9CAJ0 23-511, looked up, variant G247F)
Protein phosphatase 2C 16: B1 Protein phosphatase 2C 16 with I224G, G225F
- Mutations in HAB1 that disrupt HAB1 interaction with PYR1: x

B13: G247A: HAB1 mutant (protein, UniProt Q9CAJ0 23-511, looked up, variant G247A)
Protein phosphatase 2C 16: B1 Protein phosphatase 2C 16 with I224G, G225A
- Mutations in HAB1 that disrupt HAB1 interaction with PYR1: x

B14: G247M: HAB1 mutant (protein, UniProt Q9CAJ0 23-511, looked up, variant G247M)
Protein phosphatase 2C 16: B1 Protein phosphatase 2C 16 with I224G, G225M
- Mutations in HAB1 that disrupt HAB1 interaction with PYR1: x

B15: G247E: HAB1 mutant (protein, UniProt Q9CAJ0 23-511, looked up, variant G247E)
Protein phosphatase 2C 16: B1 Protein phosphatase 2C 16 with I224G, G225E
- Mutations in HAB1 that disrupt HAB1 interaction with PYR1: x
